According to PMC2780292, “Structural Requirements for PACSIN/Syndapin Operation during Zebrafish Embryonic Notochord Development” (PLoS ONE, 2009):

Target: the molecule itself
Assay: crystal structure; selenomethionine SAD, 2.7 Å; crystals from 17% PEG 3350, 0.1 M disodium phosphate, hanging drop; two molecules in the asymmetric unit

B1: Drosophila Syndapin N-terminal EFC domain (domain or fragment, Drosophila melanogaster)
chain: SDSFWEPGNYKRTTKRIEDGYKLCNDLQQLIQERADIEKGYAKSLRTWSKKWGELIEKGPEYGTTEAAWKGVLTESERISDVHMKIKDNLCNDVNSQIKTWQKENYHHTLMQIKERKDLEDLFKKAQKPWAKLLAKVEKAKADYHSACKTERSATNQERNANADSSLSPDQVKKMHDRVQKTKDQVQKCREKYEQAIAEITKYNSVYIEDMTSVFEKCQTFEKTRLQFFKEILFNVHSCLDLTKVQSLPQIYEEFSHTINNADQQKDLKWWSNNHGINMAMNWPSFVEYT
modifications: selenomethionine-substituted
notes: the model holds residues 14-303 (chain A, 169-188 missing) and 14-298 (chain B); The fragment arose from full-length Syndapin during crystallization; Antiparallel homodimer; also called Syndapin EFC domain; Syndapin EFC dimer; source: crystals contained only the EFC domain
- stoichiometry N: 2
